Reference: patent publication US20220275077A1
Read-outs that look alike come from different tables or passages of the source.

T1: human Interleukin-38 (IL-38) (human) (UniProt Q8WWZ1)
T1 sequence (looked up): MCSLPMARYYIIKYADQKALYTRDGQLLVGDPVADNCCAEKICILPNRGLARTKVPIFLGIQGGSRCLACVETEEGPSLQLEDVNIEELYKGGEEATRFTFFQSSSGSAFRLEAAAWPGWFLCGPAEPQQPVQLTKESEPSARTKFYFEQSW

T2: FERD3L (human) (UniProt Q96RJ6)
T2 sequence (looked up): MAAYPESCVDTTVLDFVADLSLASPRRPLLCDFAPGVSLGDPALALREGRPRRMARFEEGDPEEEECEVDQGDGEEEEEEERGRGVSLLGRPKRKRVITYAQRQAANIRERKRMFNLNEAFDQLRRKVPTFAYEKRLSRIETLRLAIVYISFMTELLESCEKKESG

T3: IL-37 (human) (UniProt Q9NZH6)
T3 sequence (looked up): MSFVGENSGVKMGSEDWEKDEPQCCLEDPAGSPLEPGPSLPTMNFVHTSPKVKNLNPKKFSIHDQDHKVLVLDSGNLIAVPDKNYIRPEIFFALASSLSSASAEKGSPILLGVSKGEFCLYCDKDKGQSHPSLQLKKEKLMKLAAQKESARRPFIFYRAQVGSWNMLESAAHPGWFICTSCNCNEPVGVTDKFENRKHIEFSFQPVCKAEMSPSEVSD

T4: IL-33 (human) (UniProt O95760)
T4 sequence (looked up): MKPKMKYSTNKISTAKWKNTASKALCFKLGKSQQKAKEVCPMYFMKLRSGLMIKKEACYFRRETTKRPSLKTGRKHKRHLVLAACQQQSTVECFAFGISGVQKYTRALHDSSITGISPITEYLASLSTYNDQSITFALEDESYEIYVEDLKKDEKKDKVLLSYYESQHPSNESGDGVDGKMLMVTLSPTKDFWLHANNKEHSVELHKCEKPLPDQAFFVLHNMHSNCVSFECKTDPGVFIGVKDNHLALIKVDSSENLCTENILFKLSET

T5: IL-36b (human) (UniProt Q9NZH7)
T5 sequence (looked up): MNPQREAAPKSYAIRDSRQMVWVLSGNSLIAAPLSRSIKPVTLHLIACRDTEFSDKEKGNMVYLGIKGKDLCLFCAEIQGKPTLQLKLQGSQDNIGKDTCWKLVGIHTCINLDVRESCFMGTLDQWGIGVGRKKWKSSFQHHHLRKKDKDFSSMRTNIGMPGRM

T6: IL-1α (human) (UniProt P01583)
T6 sequence (looked up): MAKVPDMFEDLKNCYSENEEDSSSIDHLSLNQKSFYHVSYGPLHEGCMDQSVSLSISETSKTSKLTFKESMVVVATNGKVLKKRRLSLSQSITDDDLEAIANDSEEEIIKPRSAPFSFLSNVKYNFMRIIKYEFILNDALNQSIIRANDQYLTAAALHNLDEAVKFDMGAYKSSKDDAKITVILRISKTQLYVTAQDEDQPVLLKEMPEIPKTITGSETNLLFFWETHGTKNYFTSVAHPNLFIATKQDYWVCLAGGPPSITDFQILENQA

T7: IL-36g (human) (UniProt Q9NZH8)
T7 sequence (looked up): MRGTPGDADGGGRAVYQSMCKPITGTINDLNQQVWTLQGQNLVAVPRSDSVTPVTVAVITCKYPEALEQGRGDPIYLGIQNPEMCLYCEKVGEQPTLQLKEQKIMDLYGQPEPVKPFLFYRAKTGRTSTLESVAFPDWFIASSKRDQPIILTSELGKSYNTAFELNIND

T8: IL-36Ra (human) (UniProt Q9UBH0)
T8 sequence (looked up): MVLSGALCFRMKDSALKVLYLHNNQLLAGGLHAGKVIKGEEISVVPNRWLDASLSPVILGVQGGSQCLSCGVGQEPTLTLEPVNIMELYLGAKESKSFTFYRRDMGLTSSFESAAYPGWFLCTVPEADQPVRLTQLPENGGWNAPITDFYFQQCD

T9: IL-36a (human) (UniProt Q9UHA7)
T9 sequence (looked up): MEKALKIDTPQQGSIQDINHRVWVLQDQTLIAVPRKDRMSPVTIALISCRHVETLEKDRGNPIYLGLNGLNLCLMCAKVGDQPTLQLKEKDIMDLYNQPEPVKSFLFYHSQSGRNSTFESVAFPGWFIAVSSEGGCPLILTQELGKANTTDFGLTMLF


Key:
Hnmph1 = assay: CDI HuProt native protein microarray
[1] = target: T1, human Interleukin-38 (IL-38) (human); assay: CDI HuProt native protein microarray
FERD3L (human) = target: T2, FERD3L (human); assay: CDI HuProt native protein microarray
IL-37 (human) = target: T3, IL-37 (human); assay: CDI HuProt native protein microarray
IL-33 (human) = target: T4, IL-33 (human); assay: CDI HuProt native protein microarray
IL-36b (human) = target: T5, IL-36b (human); assay: CDI HuProt native protein microarray
IL-1α (human) = target: T6, IL-1α (human); assay: CDI HuProt native protein microarray
IL-1Ra (human) = IL-1Ra (human) (UniProt P18510); assay: CDI HuProt native protein microarray
Sequence of IL-1Ra (human) (P18510 26-177 limits assumed): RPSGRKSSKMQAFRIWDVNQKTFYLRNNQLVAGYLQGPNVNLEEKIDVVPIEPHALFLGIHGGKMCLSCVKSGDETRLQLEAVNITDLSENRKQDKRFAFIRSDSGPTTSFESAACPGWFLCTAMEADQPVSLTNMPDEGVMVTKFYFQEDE

IL-18 (human) = IL-18 (human) (UniProt Q14116); assay: CDI HuProt native protein microarray
Sequence of IL-18 (human) (Q14116 whole entry): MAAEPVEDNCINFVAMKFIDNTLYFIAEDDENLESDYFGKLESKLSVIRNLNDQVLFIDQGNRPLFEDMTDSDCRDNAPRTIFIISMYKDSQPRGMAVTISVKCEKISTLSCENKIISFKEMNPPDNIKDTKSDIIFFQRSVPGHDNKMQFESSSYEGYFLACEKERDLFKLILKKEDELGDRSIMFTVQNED

[2] = target: T1, human Interleukin-38 (IL-38) (human); assay: CDI HuProt native protein microarray; remark: listed apart in the source
IL-36g (human) = target: T7, IL-36g (human); assay: CDI HuProt native protein microarray
IL-36Ra (human) = target: T8, IL-36Ra (human); assay: CDI HuProt native protein microarray
IL-1β (human) = IL-1β (human) (UniProt P01584); assay: CDI HuProt native protein microarray
Sequence of IL-1β (human) (P01584 whole entry): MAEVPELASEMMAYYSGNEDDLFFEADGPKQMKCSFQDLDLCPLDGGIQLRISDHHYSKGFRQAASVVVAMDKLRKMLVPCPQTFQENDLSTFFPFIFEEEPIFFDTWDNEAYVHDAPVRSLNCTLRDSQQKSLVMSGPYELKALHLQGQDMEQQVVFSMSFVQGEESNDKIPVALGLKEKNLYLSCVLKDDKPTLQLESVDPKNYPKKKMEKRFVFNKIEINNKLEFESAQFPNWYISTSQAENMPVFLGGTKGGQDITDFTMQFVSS

IL-36a (human) = target: T9, IL-36a (human); assay: CDI HuProt native protein microarray
[3] = target: T1, human Interleukin-38 (IL-38) (human); assay: BLI (Octet QKe), antibody on anti-mouse Fc biosensor, soluble IL-38, 1:1 model

F635 [1] | s-score [1] | F635 (FERD3L (human)) | Z-score (FERD3L (human)) | s-score (FERD3L (human)) | Z-score (IL-37 (human)) | Z-score (IL-33 (human)) | Z-score (IL-36b (human)) | Z-score (IL-1α (human)) | Z-score (IL-1Ra (human)) | Z-score (IL-18 (human)) | Z-score [2] | Z-score (IL-36g (human)) | Z-score (IL-36Ra (human)) | Z-score (IL-1β (human)) | Z-score (IL-36a (human)) | Binder | also measured
54000 | 90.3 | 19100 | 49.2 | 26.2 | -0.013 | -0.02 | -0.016 | -0.013 | -0.013 | -0.016 | 140 | -0.017 | -0.017 | -0.016 | -0.008 | CD1-M3 (antibody, from a related filing, V domains shown) VH: EVQLQQSGPELVKPGASVKIPCKASGYTFTDYNMDWVKQSHGKSLEWIGDINPNNGGTIYNQKFKGKATLTVDKSSSTAYMELRSLTSEDTAVYYCSRPYYGYFAYWGQGTLVTVSA VL: DVVMTQSPLSLPVSLGDQASISCRSSQSLVHSHENTFLHWYLQKPGQSPKLLIYRVSNRFSGVPDRFSGSGSGTDFTLKISRVEAEDLGVYFCSQSTHVPLTFGAGTKLELK | F635 (Hnmph1): 4130; Z-score (Hnmph1): 10.6; s-score (Hnmph1): 5; Z-score [1]: 140; Kd [3]: 0.721 nM
45600 | 91.5 | 16300 | 50.9 | 40.8 | -0.016 | -0.014 | -0.01 | -0.014 | 0.003 | -0.016 | 142 | -0.008 | -0.019 | -0.017 | 0.012 | CD1-M8 (antibody, from a related filing, V domains shown) VH: EVQLQQSGPELVKPGASVKMSCKASGYTFTDYYIHWVKQSHGKGLEWIGYIFPNNGGNGYSQKFKGKATMTVDKSSSTAYMELRSLTSEDSAVYYCARGGYDAGFVYWGQGTLVTVSA VL: DIVMSQSPSSLAVSAGEKVTMSCKSSQSLFNSGARKNFLAWYQQKPGQSPKLLIYWASTRESGVPDRFTGSGSGTDFTLTISSVQAEDLAVYYCKQSYYLITFGAGTKLELK | 
